The target in data set [1] is SAP54 (purified, secreted part) (Aster Yellows-Witches' Broom phytoplasma (Candidatus Phytoplasma asteris strain AY-WB)). As to the kind of experiment: dynamic light scattering.
Data set [2] deals with the molecule itself. Nature of the data set: dynamic light scattering.

One may read the stoichiometry N as a count of units in the complex or per binding partner.

Regarding “SAP54 (purified, secreted part) (natural protein)”, the stoichiometry N in data set [1] came out at 2.

B1: K-domain of SEP3 (SEP3^75-178) (domain or fragment, A. thaliana, UniProt O22456-1 75-178, looked up)
chain: YGAPEPNVPSREALAVELSSQQEYLKLKERYDALQRTQRNLLGEDLGPLSTKELESLERQLDSSLKQIRALRTQFMLDQLNDLQSKERMLTETNKTLRLRLADG
On to B1, for which the “stoichiometry N” value in data set [2] turned out to be 4.

Source of the values: doi:10.1101/772699 (bioRxiv, 2019).
